Consider two substances from article doi:10.1101/2025.07.25.666786.

The target in assay [1] is Plastid Copper Chaperone 1 (PCC1) from Chlamydomonas reinhardtii, recombinant, produced in the presence of Cu (Chlamydomonas reinhardtii).
For assay [2], the target named is CrAPE1 C128S mutant, recombinant soluble region of the DUF2854 of APE1 from Chlamydomonas reinhardtii (Chlamydomonas reinhardtii). In words: MST.
Assay [3] shares this target. In words: SEC-MALS.

Take “Plastid Copper Chaperone 1 (PCC1) from Chlamydomonas reinhardtii, recombinant, produced in the presence of Cu (natural protein)”: the stoichiometry N in assay [1] was 2. Besides, the Kd in assay [2] amounted to 38.6 nM.

“CrAPE1 C128S mutant, recombinant soluble region of the DUF2854 of APE1 from Chlamydomonas reinhardtii (domain or fragment)”: the stoichiometry N in assay [3] worked out at 2.
